[ ]: non-standard residue; d: D form. Phe(4-Ac) = CC(=O)c1ccc(C[C@H](N)C(=O)O)cc1
B1: bFGF-21-Q108-30KPEG (ligand)
chain: HPIPDSSPLLQFGGQVRQRYLYTDDAQETEAHLEIRADGTVVGAARQSPESLLELKALKPGVIQILGVKTSRFLCQGPDGKLYGSLHFDPKACSFRELLLEDGYNVY[Phe(4-Ac)](PEG 30 kDa)SETLGLPLRLPPQRSSNRDPAPRGPARFLPLPGLPAAPPDPPGILAPEPPDVGSSDPLSMVGPSYGRSPSYTS
B2: bFGF-21-Q108-30KPEG G170D (ligand)
chain: HPIPDSSPLLQFGGQVRQRYLYTDDAQETEAHLEIRADGTVVGAARQSPESLLELKALKPGVIQILGVKTSRFLCQGPDGKLYGSLHFDPKACSFRELLLEDGYNVY[Phe(4-Ac)](PEG 30 kDa)SETLGLPLRLPPQRSSNRDPAPRGPARFLPLPGLPAAPPDPPGILAPEPPDVGSSDPLSMVDPSYGRSPSYTS
B3: bFGF-21-G77-30KPEG (ligand)
chain: HPIPDSSPLLQFGGQVRQRYLYTDDAQETEAHLEIRADGTVVGAARQSPESLLELKALKPGVIQILGVKTSRFLCQ[Phe(4-Ac)](PEG 30 kDa)PDGKLYGSLHFDPKACSFRELLLEDGYNVYQSETLGLPLRLPPQRSSNRDPAPRGPARFLPLPGLPAAPPDPPGILAPEPPDVGSSDPLSMVEPSYGRSPSYTS
modifications: not fully specified; also: PEG: linear aminooxy-PEG
B4: bFGF-21-R131-30KPEG (ligand)
chain: HPIPDSSPLLQFGGQVRQRYLYTDDAQETEAHLEIRADGTVVGAARQSPESLLELKALKPGVIQILGVKTSRFLCQGPDGKLYGSLHFDPKACSFRELLLEDGYNVYQSETLGLPLRLPPQRSSNRDPAP[Phe(4-Ac)](PEG 30 kDa)GPARFLPLPGLPAAPPDPPGILAPEPPDVGSSDPLSMVEPSYGRSPSYTS
modifications: not fully specified; also: PEG: linear aminooxy-PEG
B5: bFGF-21-K91-30KPEG (ligand)
chain: HPIPDSSPLLQFGGQVRQRYLYTDDAQETEAHLEIRADGTVVGAARQSPESLLELKALKPGVIQILGVKTSRFLCQGPDGKLYGSLHFDP[Phe(4-Ac)](PEG 30 kDa)ACSFRELLLEDGYNVYQSETLGLPLRLPPQRSSNRDPAPRGPARFLPLPGLPAAPPDPPGILAPEPPDVGSSDPLSMVEPSYGRSPSYTS
modifications: not fully specified; also: PEG: linear aminooxy-PEG
B6: bFGF-21-Q108-30KPEG G170S (ligand)
chain: HPIPDSSPLLQFGGQVRQRYLYTDDAQETEAHLEIRADGTVVGAARQSPESLLELKALKPGVIQILGVKTSRFLCQGPDGKLYGSLHFDPKACSFRELLLEDGYNVY[Phe(4-Ac)](PEG 30 kDa)SETLGLPLRLPPQRSSNRDPAPRGPARFLPLPGLPAAPPDPPGILAPEPPDVGSSDPLSMVSPSYGRSPSYTS
B7: bFGF-21-Q108-30KPEG G170A (ligand)
chain: HPIPDSSPLLQFGGQVRQRYLYTDDAQETEAHLEIRADGTVVGAARQSPESLLELKALKPGVIQILGVKTSRFLCQGPDGKLYGSLHFDPKACSFRELLLEDGYNVY[Phe(4-Ac)](PEG 30 kDa)SETLGLPLRLPPQRSSNRDPAPRGPARFLPLPGLPAAPPDPPGILAPEPPDVGSSDPLSMVAPSYGRSPSYTS
B8: bFGF-21-Q108pAF-30KPEG-G170E (ligand)
chain: HPIPDSSPLLQFGGQVRQRYLYTDDAQETEAHLEIRADGTVVGAARQSPESLLELKALKPGVIQILGVKTSRFLCQGPDGKLYGSLHFDPKACSFRELLLEDGYNVY[Phe(4-Ac)](PEG 30 kDa)SETLGLPLRLPPQRSSNRDPAPRGPARFLPLPGLPAAPPDPPGILAPEPPDVGSSDPLSMVEPSYGRSPSYTS

Each binder was assayed against beta Klotho and FGFR1c (Fibroblast Growth Factor Receptor isoform 1c) expressed on the cell surface of a proprietary stable cell line (HEK293) (assay: cell-based or functional assay).

Average Fold Loss Potency Relative to bFGF-21-Q108-30KPEG, Elk1 luciferase reporter assay [fold]	EC50 (ng/mL), STEADY-GLO Elk1 luciferase reporter assay [ng/mL]	Emax (%) relative to WT bFGF-21, Elk1 luciferase reporter assay [%]	Fold loss potency relative to WT bFGF21, Elk1 luciferase reporter assay [fold]	Binder
1	147	73	4	B1
8.7	–	–	–	B2
–	347	50	9	B3
–	556	38	14	B4
–	537	57	14	B5
0.8	–	–	–	B6
1.7	–	–	–	B7
3.7	–	–	–	B8

Source: patent US20190201491A1
